Test results as given in the supplement of paper PMC10724198.
± gives the standard deviation of the averaged measurements.

Assays:
Saccharomyces cerevisiae [1] = experiment: protein stability index of tFT-peptide fusion (C-terminal peptide) (PSI (0-1 scale)); higher = more stable (slower turnover)
Procedure: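 MPS profiling in S. cerevisiae of the tFT-X12 degron library: putative degron peptides plus stable controls, 12 aa, fused to the C-terminus of a sfGFP-mCherry timer. Cells are FACS-sorted into 8 mCherry/sfGFP bins and deep-sequenced. PSI runs from 0 (unstable) to 1 (stable). Backgrounds are wild type, das1Δ and doa10Δ at 30 °C, and wild type, das1Δ, cdc34-1 and cdc53-1 at 37 °C; 2-3 technical replicates each.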

Saccharomyces cerevisiae [2] = experiment: as above; settings: genetic background: wild type; temperature: 30 C
[3] = genetic background: cdc34-1, temperature: 37 C
[4] = genetic background: cdc53-1, temperature: 37 C
[5] = genetic background: das1 deletion, temperature: 30 C
[6] = genetic background: das1 deletion, temperature: 37 C
[7] = genetic background: doa10 deletion, temperature: 30 C
[8] = genetic background: wild type, temperature: 30 C
[9] = genetic background: wild type, temperature: 37 C
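Further: PSI is a weighted mean of sequencing reads over stability bins, variants kept only with over 10 reads, mCherry proximal and sfGFP distal, peptide attached via GGGS linker.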

Sequence | protein stability index (Saccharomyces cerevisiae [1]; [3]) | protein stability index (Saccharomyces cerevisiae [1]; [4]) | protein stability index (Saccharomyces cerevisiae [1]; [5]) | protein stability index (Saccharomyces cerevisiae [1]; [6]) | protein stability index (Saccharomyces cerevisiae [1]; [7]) | protein stability index (Saccharomyces cerevisiae [1]; [8]) | protein stability index (Saccharomyces cerevisiae [1]; [9]) | protein stability index (Saccharomyces cerevisiae [2])
SFLVRFVYFFAL | 0.54 ± 0.043 | 0.619 ± 0.025 | 0.549 ± 0.021 | 0.6696 ± 0.0039 | 0.229 ± 0.02 | 0.232 ± 0.027 | 0.309 ± 0.017 | 0.314 ± 0.019
RFGLPLLVVTWL | 0.445 ± 0.0073 | 0.46 ± 0.0074 | 0.394 ± 0.028 | 0.5314 ± 0.005 | 0.4591 ± 0.0032 | 0.402 ± 0.0044 | 0.512 ± 0.011 | 0.468 ± 0.043
AGTLLLGYGILA | 0.454 ± 0.019 | 0.464 ± 0.038 | 0.342 ± 0.023 | 0.5107 ± 0.00054 | 0.309 ± 0.017 | 0.349 ± 0.023 | 0.486 ± 0.0055 | 0.43845 ± 0.00034
DDVRFLLWGLCC | 0.48 ± 0.022 | 0.459 ± 0.018 | 0.398 ± 0.024 | 0.5595 ± 0.0051 | 0.183 ± 0.0027 | 0.218 ± 0.019 | 0.3644 ± 0.0027 | 0.324 ± 0.027
KKKNIYKVMKLE | 0.65 ± 0.011 | 0.706 ± 0.011 | 0.646 ± 0.035 | 0.72636 ± 0.00051 | 0.146 ± 0.043 | 0.19 ± 0.041 | 0.307 ± 0.025 | 0.403 ± 0.055
QNVKRIVRHMLT | 0.62 ± 0.056 | 0.691 ± 0.041 | 0.658 ± 0.008 | 0.723 ± 0.04 | 0.207 ± 0.018 | 0.251 ± 0.022 | 0.41 ± 0.027 | 0.374 ± 0.018
IGMVSELLLFYP | 0.721 ± 0.047 | 0.7374 ± 0.0073 | 0.671 ± 0.022 | 0.7676 ± 0.0068 | 0.63 ± 0.0085 | 0.667 ± 0.045 | 0.73 ± 0.008 | 0.72 ± 0.017
CLCFFLICFILF | 0.252 ± 0.0092 | 0.255 ± 0.011 | 0.235 ± 0.019 | 0.391 ± 0.027 | 0.248 ± 0.0026 | 0.219 ± 0.032 | 0.333 ± 0.016 | 0.3151 ± 0.002
LGRFHLACLLFL | 0.588 ± 0.013 | 0.61417 ± 0.00036 | 0.486 ± 0.028 | 0.6113 ± 0.004 | 0.41 ± 0.0065 | 0.412 ± 0.035 | 0.543 ± 0.014 | 0.43 ± 0.048
LPLLLFYLPIIW | 0.4647 ± 0.0038 | 0.479 ± 0.0079 | 0.401 ± 0.034 | 0.521 ± 0.0097 | 0.414 ± 0.0077 | 0.389 ± 0.034 | 0.4796 ± 0.0041 | 0.464 ± 0.03
RSYAYIIVATVA | 0.153 ± 0.021 | 0.197 ± 0.0038 | 0.182 ± 0.026 | 0.284 ± 0.014 | 0.14 ± 0.0081 | 0.178 ± 0.025 | 0.214 ± 0.024 | 0.274 ± 0.023
WFSVRQLVFVSG | 0.119 ± 0.011 | 0.146 ± 0.018 | 0.163 ± 0.028 | 0.236 ± 0.0094 | 0.124 ± 0.0015 | 0.163 ± 0.019 | 0.218 ± 0.0069 | 0.218 ± 0.014
CPALYMPPPVLV | 0.114 ± 0.036 | 0.13 ± 0.012 | 0.191 ± 0.026 | 0.238 ± 0.01 | 0.14 ± 0.03 | 0.182 ± 0.015 | 0.215 ± 0.0041 | 0.2594 ± 0.0017
EDRKRNKERRWT | 0.679 ± 0.024 | 0.702 ± 0.013 | 0.642 ± 0.015 | 0.716 ± 0.0076 | 0.305 ± 0.0042 | 0.303 ± 0.027 | 0.57 ± 0.01 | 0.4256 ± 0.0024
LSCFCLFCLSFC | 0.634 ± 0.053 | 0.678 ± 0.026 | 0.518 ± 0.036 | 0.663 ± 0.027 | 0.517 ± 0.039 | 0.496 ± 0.015 | 0.669 ± 0.0017 | 0.0626 ± 0.033
LLPYSLSLALRA | 0.395 ± 0.0049 | 0.391 ± 0.015 | 0.314 ± 0.048 | 0.468 ± 0.0073 | 0.2604 ± 0.0023 | 0.28 ± 0.027 | 0.429 ± 0.015 | 0.412 ± 0.0096
YILLRWVNLSCL | 0.524 ± 0.012 | 0.587 ± 0.013 | 0.488 ± 0.022 | 0.645 ± 0.0099 | 0.149 ± 0.017 | 0.156 ± 0.021 | 0.283 ± 0.0069 | 0.236 ± 0.062
LCVVVICCLMAR | 0.097 ± 0.025 | 0.198 ± 0.055 | 0.123 ± 0.036 | 0.265 ± 0.0071 | 0.0806 ± 0.015 | 0.125 ± 0.026 | 0.216 ± 0.012 | 0.279 ± 0.05
DRRYIISLIYIL | 0.32 ± 0.022 | 0.5045 ± 0.0033 | 0.369 ± 0.023 | 0.576 ± 0.035 | 0.0892 ± 0.014 | 0.0874 ± 0.015 | 0.105 ± 0.0088 | 0.113 ± 0.059
AFWLFSGIARLA | 0.568 ± 0.011 | 0.66 ± 0.023 | 0.472 ± 0.014 | 0.642 ± 0.024 | 0.221 ± 0.014 | 0.277 ± 0.011 | 0.5014 ± 0.0035 | 0.407 ± 0.041
VWVAWLGGAILA | 0.149 ± 0.021 | 0.188 ± 0.012 | 0.2 ± 0.029 | 0.29 ± 0.0052 | 0.174 ± 0.024 | 0.194 ± 0.022 | 0.272 ± 0.0045 | 0.267 ± 0.021
YVIGLLFVVSGV | 0.265 ± 0.013 | 0.366 ± 0.025 | 0.258 ± 0.044 | 0.465 ± 0.029 | 0.229 ± 0.0076 | 0.251 ± 0.033 | 0.385 ± 0.03 | 0.39 ± 0.0085
GVCRFFCLVFCS | 0.544 ± 0.02 | 0.5349 ± 0.0021 | 0.507 ± 0.049 | 0.515 ± 0.018 | 0.494 ± 0.013 | 0.441 ± 0.018 | 0.4723 ± 0.003 | 0.466 ± 0.036
DSTLLYRPPSPA | 0.672 ± 0.032 | 0.713 ± 0.02 | 0.646 ± 0.019 | 0.7252 ± 0.0017 | 0.651 ± 0.021 | 0.637 ± 0.02 | 0.683 ± 0.022 | 0.7089 ± 0.0008
PVSEPCAWRIIA | 0.374 ± 0.015 | 0.689 ± 0.026 | 0.6769 ± 0.0044 | 0.699 ± 0.018 | 0.0726 ± 0.0028 | 0.0645 ± 0.018 | 0.0736 ± 0.0023 | 0.1098 ± 0.00053
WFLLSLSSFVSS | 0.427 ± 0.03 | 0.415 ± 0.11 | 0.363 ± 0.023 | 0.469 ± 0.0061 | 0.358 ± 0.037 | 0.351 ± 0.0038 | 0.4555 ± 0.00088 | 0.427 ± 0.015
LWVTRVYCLLVC | 0.0444 ± 0.016 | 0.158 ± 0.03 | 0.168 ± 0.019 | 0.233 ± 0.019 | 0.0555 ± 0.02 | 0.0507 ± 0.015 | 0.0739 ± 0.015 | 0.0818 ± 0.0069
LEVHGSCIFICV | 0.5422 ± 0.0046 | 0.5462 ± 0.0037 | 0.359 ± 0.039 | 0.5674 ± 0.0018 | 0.336 ± 0.041 | 0.374 ± 0.0092 | 0.492 ± 0.026 | 0.444 ± 0.017
LYLGCVLFVLFR | 0.197 ± 0.045 | 0.151 ± 0.024 | 0.216 ± 0.029 | 0.368 ± 0.0098 | 0.273 ± 0.0047 | 0.198 ± 0.024 | 0.312 ± 0.036 | 0.234 ± 0.054
LFLSFLLFVLAF | 0.434 ± 0.023 | 0.444 ± 0.015 | 0.319 ± 0.029 | 0.471 ± 0.036 | 0.302 ± 0.0039 | 0.312 ± 0.045 | 0.425 ± 0.0086 | 0.388 ± 0.042
